Test results as given in paper PMC9441717 (The Journal of Cell Biology, 2022).

Experiments:
Assay in all cases: pull-down
[1] = molecular target: T1, His-tagged STX8 (1-210) (human, UniProt Q9UNK0 1-210)
T1 sequence: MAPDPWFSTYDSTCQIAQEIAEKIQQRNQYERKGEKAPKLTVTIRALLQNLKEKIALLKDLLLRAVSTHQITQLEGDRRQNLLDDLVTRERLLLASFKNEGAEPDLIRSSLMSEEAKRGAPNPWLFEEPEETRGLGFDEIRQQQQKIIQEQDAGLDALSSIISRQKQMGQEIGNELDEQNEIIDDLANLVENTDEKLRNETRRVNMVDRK

[2] = molecular target: T2, His-tagged STX7 (1-236) (human, UniProt O15400 1-236)
T2 sequence: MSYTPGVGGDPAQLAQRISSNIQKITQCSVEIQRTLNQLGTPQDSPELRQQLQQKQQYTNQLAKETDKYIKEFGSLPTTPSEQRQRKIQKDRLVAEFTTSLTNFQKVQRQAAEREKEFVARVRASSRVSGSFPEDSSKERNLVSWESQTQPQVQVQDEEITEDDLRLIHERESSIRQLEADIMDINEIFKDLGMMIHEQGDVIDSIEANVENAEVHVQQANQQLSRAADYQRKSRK

[3] = molecular target: T3, His-tagged VTI1B (1-204) (human, UniProt Q9UEU0 1-204)
T3 sequence: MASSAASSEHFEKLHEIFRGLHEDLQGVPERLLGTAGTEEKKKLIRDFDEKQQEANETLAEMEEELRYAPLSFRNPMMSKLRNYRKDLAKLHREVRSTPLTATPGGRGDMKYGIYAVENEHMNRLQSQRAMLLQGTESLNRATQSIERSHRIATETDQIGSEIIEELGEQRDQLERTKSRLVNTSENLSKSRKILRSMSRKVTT

Measured: binding result

B1: GST-tagged VAMP4 (1-115) (domain or fragment)
chain: MPPKFKRHLNDDDVTGSVKSERRNLLEDDSDEEEDFFLRGPSGPRFGPRNDKIKHVQNQVDEVIDVMQENITKVIERGERLDELQDKSESLSDNATAFSNRSKQLRRQMWWRGCK
binds: [1] | [2] | [3]
